This is an account of results in PMC6497155 (ACS infectious diseases, 2018).

For one data set, the system named is ClpP2. The data set is described as follows: Proteolytic activity of ClpP2 with DTT. The data set is classed as biochemical, C. difficile. The note with it: varying concentrations of DTT; incubation times exceeding 48 h.
Data set [1] can be described thus: Storage stability and concentration limit of purified ClpP. The class given is physicochemical. Particulars: purified protein in activity buffer.
The next data set concerns ClpX. Particulars: 200 nM ClpP, 50 nM ClpX; relative to ClpX alone.
A short description of data set [2]: Thermal stability of ClpP homotetradecamers. The class given is physicochemical.

In the case of `O[C@@H](CS)[C@@H](O)CS` (racemic) [dithiothreitol (DTT), dithiothreitol], in the data set with ClpP2, the “Stimulation of ClpP2 proteolytic activity by DTT” value was “failed to stimulate proteolytic activity”.

For “ClpP1: recombinant C. difficile ClpP1 (YP_001089821.1), homotetradecamer, prepared from ΔEcClpP E. coli unless otherwise noted”, the “Concentration reached without any sign of precipitation” value in data set [1] is recorded as ~ 60 mg/mL. Besides, the “Rate reduction of ClpX ATP hydrolysis” value in the data set on ClpX was ~ 18%.

The term Tm denotes the temperature at which the thermal transition is half complete. Turning to “ClpP2: recombinant C. difficile ClpP2 (YP_001089868.1), homotetradecamer”, in data set [2] (no ADEP, SYPRO Orange, activity buffer (25 mM HEPES, 100 mM KCl, 5 mM MgCl2, 1 mM DTT, 10% glycerol), 25 to 85 °C in 0.3 °C increments, triplicate, Boltzmann fit), the Tm turned out to be 46.5 °C. Also, the “Effect of reduced conditions on thermal stability” value in data set [2] (reduced conditions) is “no significant effect on the thermal stability”. The “Concentration above which less stability is exhibited” value in data set [1] is “exceeding 12.5 mg/mL”. The “Rate reduction of ClpX ATP hydrolysis” value in the data set on ClpX is given as ~ 7%.
